# Test results reported in patent publication US20050130265, “Aiolos, Helios, Daedalos and Ikaros: genes, polypeptides, regulatory elements and uses thereof” (published 2005).
# T1: Aiolos (GST fusion) (Mus musculus, UniProt O08900 SEQ:1-507)
# T1 chain: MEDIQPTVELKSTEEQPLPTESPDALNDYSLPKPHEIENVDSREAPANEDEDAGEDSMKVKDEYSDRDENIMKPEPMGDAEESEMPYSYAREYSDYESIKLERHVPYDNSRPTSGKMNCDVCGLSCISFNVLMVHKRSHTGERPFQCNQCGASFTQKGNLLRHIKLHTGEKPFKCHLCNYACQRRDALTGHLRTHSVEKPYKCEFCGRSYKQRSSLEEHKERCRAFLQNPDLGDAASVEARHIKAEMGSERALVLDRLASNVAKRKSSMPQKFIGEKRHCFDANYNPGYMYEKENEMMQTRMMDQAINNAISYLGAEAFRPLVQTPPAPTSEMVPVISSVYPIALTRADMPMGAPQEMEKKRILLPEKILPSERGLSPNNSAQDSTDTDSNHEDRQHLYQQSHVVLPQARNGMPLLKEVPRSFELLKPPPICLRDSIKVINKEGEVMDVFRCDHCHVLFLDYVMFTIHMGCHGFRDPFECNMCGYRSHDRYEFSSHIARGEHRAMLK
# Target: T1, Aiolos (GST fusion)
# Assay: EMSA; 0.5 ug protein, 1-2 ng DNA; binding stated generally for Ikaros consensus sites
# Conditions: tags: GST
# Experimental: DNA binding assays (EMSA) were performed essentially as described in Molnar et al. (1994) Mol. Cell. Biol. 14, 8292-8303. GST-Aiolos and Ikaros fusion proteins and their GST fusion partner (0.5 μg) were tested for binding to the IkBD1-[…] (SEQ ID NO:11) oligonucleotide which contains a high affinity Ikaros binding site (100,000 cpm/reaction which equals 1 to 2 ngs of DNA). Competition assays were performed with Ik-BS 1 and with Ik-BS8 TCAGCTTTTGGGggTACCCTGTCA (SEQ ID NO:12) oligonucleotides used at 5-100× molar excess.
binder,measurement,value
IkBS1 (dsDNA) DNA 1: TCAGCTTTTGGGAATACCCTGTCA DNA 2: TGACAGGGTATTCCCAAAAGCTGA,binding result,binds
